Assay results as given in paper PMC13360575.

Target: chicken IgY (chicken)
Experiment: BLI; Octet, SAX (streptavidin) biosensors; recombinant Fabs against IgY; KD from a kinetic 1:1 model, global fit over multiple concentrations (partial fits averaged for 3 low-affinity Fabs)

B1: clone 2.1 Fab CB_01 (clonal burst) (Fab, V domains shown)
VH: EVQLQESGPSLVKPSQTLSLTCSVTGDSITSGYWNWIRKFPGNKLEYMGYISYSGSTYYNPSLKSRISFTRDTSKNQYYLQLNSVTTEDTATYYCARDFDVWGAGTTVTVSS
VL: DIVMTQSQKFMSTSVGDRVSVTCKASQNVGTNVAWSQQKPGQSPKALIYSASYRYSGVPDRFTGSGSGTDFTLTISNVQSEDLAEYFCQQYKSYPLTFGSGTKLEIK
- Kd: 3.77 nM
- koff: 0.000398 s⁻¹
- kon: 105000 M⁻¹ s⁻¹

B2: clone 2.1 Fab TA_5 (Fab, V domains shown)
VH: EVQLQESGPSLVKPSQTLSLTCSVTGASITSGYWNWIRKFPGNKLEYMGYISYSGSTYYNPSLKSRISITRDTSKNQYYLQLNSVTTEDTATYYCARDFDVWGAGTTVTVSS
VL: DIVMTQSQKFMSTSVGDRVSVTCKASQNVGTNVAWYQQKPGQSPKALIYSASYRYSGVPDRFTGSGSGTDFTLTISNVQSEDLAEYFCQQYNSYPLTFGSGTKLEIK
- Kd: 3.81 nM
- koff: 0.000858 s⁻¹
- kon: 225000 M⁻¹ s⁻¹

B3: 2.1^hi Fab, high-affinity variant of clone 2.1 (Fab, V domains shown)
VH: EVQLQESGPSLVKPSQTLSLTCSVTGASITSGYWNWIRKFPGNRLEYMGYISYSGGTYYNPSLKSRISITRDTSKNQYYLQLNSVTTEDTATYYCARDFDVWGAGTTVTVSS
VL: DIVMTQSQKFMSTSVGDRVSVTCKASQNVGTNVGWFQQKPGQSPKSLIYSASYRYSGVPDRFTGSGSGTDFTLTISNVQSEDLAEYFCHQYYSYPLTFGSGTKLEIK
- koff: 6.34e-05 s⁻¹
- kon: 1.03e+06 M⁻¹ s⁻¹

B4: clone 2.1 Fab, unmutated (Fab, V domains shown)
VH: EVQLQESGPSLVKPSQTLSLTCSVTGDSITSGYWNWIRKFPGNKLEYMGYISYSGSTYYNPSLKSRISITRDTSKNQYYLQLNSVTTEDTATYYCARDFDVWGAGTTVTVSS
VL: DIVMTQSQKFMSTSVGDRVSVTCKASQNVGTNVAWYQQKPGQSPKALIYSASYRYSGVPDRFTGSGSGTDFTLTISNVQSEDLAEYFCQQYNSYPLTFGSGTKLEIK
- Kd: 26 nM
- koff: 0.00226 s⁻¹
- kon: 86700 M⁻¹ s⁻¹

B5: clone 2.1 Fab TA_10 (Fab, V domains shown)
VH: EVQLQESGPSLVKPSQTLSLTCSVTGDSITSGYWNWIRRFPGNKLEYMGYISYSGSTYYNPSLKSRISITRDTSKNQYYLQLNSVTTEDTATYYCARDFDVWGAGTTVTVSS
VL: DIVMTQSQKFMSTSVGDRVSVTCKASQNVGTNVAWYQQKPGQSPKALIYSASYRYSGVPDRFTGSGSGTDFTLTISNVQSEDLAEYFCQQYNSYPLTFGSGTKLEIK
- Kd: 22.3 nM
- koff: 0.0034 s⁻¹
- kon: 152000 M⁻¹ s⁻¹

B6: clone 2.1 Fab TA_11 (Fab, V domains shown)
VH: EVQLQESGPSLVKPSQTLSLTCSVTGDSITSGYWNWIRKFPGNRLEYMGYISYSGSTYYNPSLKSRISITRDTSKNQYYLQLNSVTTEDTATYYCARDFDVWGAGTTVTVSS
VL: DIVMTQSQKFMSTSVGDRVSVTCKASQNVGTNVAWYQQKPGQSPKALIYSASYRYSGVPDRFTGSGSGTDFTLTISNVQSEDLAEYFCQQYNSYPLTFGSGTKLEIK
- Kd: 21.6 nM
- koff: 0.00331 s⁻¹
- kon: 153000 M⁻¹ s⁻¹

B7: clone 2.1 Fab TA_12 (Fab, V domains shown)
VH: EVQLQESGPSLVKPSQTLSLTCSVTGDSITSGYWNWIRKFPGNKLEYMGYISYSGSTYYNPSLKSRISITRDTSKNQYYLQLNSVTTEDTATYYCARDFDVWGAGTTVTVSS
VL: DIVMTQSQKFMSTSVGDRVSVTCKASQNVGTNVAWFQQKPGQSPKALIYSASYRYSGVPDRFTGSGSGTDFTLTISNVQSEDLAEYFCQQYNSYPLTFGSGTKLEIK
- Kd: 22.7 nM
- koff: 0.00408 s⁻¹
- kon: 180000 M⁻¹ s⁻¹

B8: clone 2.1 Fab CB_02 (clonal burst) (Fab, V domains shown)
VH: EVQLQESGPSLVKPSQTLSLTCSVTGDSITSGYWNWIRKFPGNKLEYMGYISYSGSTYYNPSLKSRISITRDTSKNQYYLQLNSVTTEDTATYYCGRDFDVWGAGTTVTVSS
VL: DIVMTQSQKFMSTSVGDRVSVTCKASQNVGTNVGWYQQKPGQSPKALIYSASYRYSGVPDRFTGSGSGTDFTLTISNVQSEDLAEYFCQQYNSYPLTFGSGTKLEIK
- Kd: 0.507 nM
- koff: 0.000123 s⁻¹
- kon: 244000 M⁻¹ s⁻¹

B9: clone 2.1 Fab TA_13 (Fab, V domains shown)
VH: EVQLQESGPSLVKPSQTLSLTCSVTGDSITSGYWNWIRKFPGNKLEYMGYISYSGSTYYNPSLKSRISITRDTSKNQYYLQLNSVTTEDTATYYCARDFDVWGAGTTVTVSS
VL: DIVMTQSQKFMSTSVGDRVSVTCKASQNVGTNVGWFQQKPGQSPKALIYSASYRYSGVPDRFTGSGSGTDFTLTISNVQSEDLAEYFCHQYYSYPLTFGSGTKLEIK
- Kd: 0.549 nM
- koff: 0.000119 s⁻¹
- kon: 216000 M⁻¹ s⁻¹

B10: clone 2.1 Fab TA_14 (Fab, V domains shown)
VH: EVQLQESGPSLVKPSQTLSLTCSVTGDSITSGYWNWIRKFPGNKLEYMGYISYSGSTYYNPSLKSRISITRDTSKNQYYLQLNSVTTEDTATYYCARDFDVWGAGTTVTVSS
VL: DIVMTQSQKFMSTSVGDRVSVTCKASQNVGTNVAWYQQKPGQSPKSLIYSASYRYSGVPDRFTGSGSGTDFTLTISNVQSEDLAEYFCQQYNSYPLTFGSGTKLEIK
- Kd: 6.25 nM
- koff: 0.00139 s⁻¹
- kon: 223000 M⁻¹ s⁻¹

B11: clone 2.1 Fab TA_15 (Fab, V domains shown)
VH: EVQLQESGPSLVKPSQTLSLTCSVTGDSITSGYWNWIRKFPGNKLEYMGYISYSGSTYYNPSLKSRISITRDTSKNQYYLQLNSVTTEDTATYYCARDFDVWGAGTTVTVSS
VL: DIVMTQSQKFMSTSVGDRVSVTCKASQNVGTNVAWYQQKPGQSPKALIFSASYRYSGVPDRFTGSGSGTDFTLTISNVQSEDLAEYFCQQYNSYPLTFGSGTKLEIK
- Kd: 14.4 nM
- koff: 0.00168 s⁻¹
- kon: 116000 M⁻¹ s⁻¹

B12: clone 2.1 Fab TA_16 (Fab, V domains shown)
VH: EVQLQESGPSLVKPSQTLSLTCSVTGDSITSGYWNWIRKFPGNKLEYMGYISYSGSTYYNPSLKSRISITRDTSKNQYYLQLNSVTTEDTATYYCARDFDVWGAGTTVTVSS
VL: DIVMTQSQKFMSTSVGDRVSVTCKASQNVGTNVGWYQQKPGQSPKSLIFSASYRYSGVPDRFTGSGSGTDFTLTISNVQSEDLAEYFCQQYNSYPLTFGSGTKLEIK
- Kd: 1.49 nM
- koff: 0.000329 s⁻¹
- kon: 221000 M⁻¹ s⁻¹

B13: clone 2.1 Fab TA_19 (Fab, V domains shown)
VH: EVQLQESGPSLVKPSQTLSLTCSVTGDSITSGYWNWIRKFPGNKLEYMGYISYSGSTYYNPSLKSRISITRDTSKNQYYLQLNSVTTEDTATYYCARDFDVWGAGTTVTVSS
VL: DIVMTQSQKFMSTSVGDRVSVTCKASQNVGTNVGWFQQKPGQSPKSLIYSASYRYSGVPDRFTGSGSGTDFTLTISNVQSEDLAEYFCHQYYSYPLTFGSGTKLEIK
- Kd: 0.261 nM
- koff: 8.66e-05 s⁻¹
- kon: 331000 M⁻¹ s⁻¹

B14: clone 2.1 Fab TA_22 (Fab, V domains shown)
VH: EVQLQESGPSLVKPSQTLSLTCSVTGDSITSGYWNWIRKFPGNKLEYMGYISYSGSTYYNPSLKSRISITRDTSKNQYYLQLNSVTTEDTATYYCARDFDVWGAGTTVTVSS
VL: DIVMTQSQKFMSTSVGDRVSVTCKASQNVGTNVAWYQQKPGQSPKALIYSASYRYSGVPDRFTGSGSGTDFTLTISNVQSEDLAEYFCQQYSSYPLTFGSGTKLEIK
- Kd: 14.9 nM
- koff: 0.00124 s⁻¹
- kon: 83500 M⁻¹ s⁻¹

B15: clone 2.1 Fab TA_23 (Fab, V domains shown)
VH: EVQLQESGPSLVKPSQTLSLTCSVTGDSITSGYWNWIRKFPGNKLEYMGYISYSGSTYYNPSLKSRISITRDTSKNQYYLQLNSVTTEDTATYYCARDFDVWGAGTTVTVSS
VL: DIVMTQSQKFMSTSVGDRVSVTCKASQNVGTNVAWYQQKPGQSPKALIYSASYRYSGVPDRFTGSGSGTDFTLTISNVQSEDLAEYFCHQYNSYPLTFGSGTKLEIK
- Kd: 13.3 nM
- koff: 0.00133 s⁻¹
- kon: 100000 M⁻¹ s⁻¹

B16: clone 2.1 Fab TA_24 (Fab, V domains shown)
VH: EVQLQESGPSLVKPSQTLSLTCSVTGDSITSGYWNWIRKFPGNKLEYMGYISYSGSTYYNPSLKSRISITRDTSKNQYYLQLNSVTTEDTATYYCARDFDVWGAGTTVTVSS
VL: DIVMTQSQKFMSTSVGDRVSVTCKASQNVGTNVAWYQQKPGQSPKALIYSASYRYSGVPDRFTGSGSGTDFTLTISNVQSEDLAEYFCQQYYSYPLTFGSGTKLEIK
- Kd: 7.72 nM
- koff: 0.000911 s⁻¹
- kon: 118000 M⁻¹ s⁻¹

B17: clone 2.1 Fab TA_25 (Fab, V domains shown)
VH: EVQLQESGPSLVKPSQTLSLTCSVTGDSITSGYWNWIRKFPGNKLEYMGYISYSGSTYYNPSLKSRISITRDTSKNQYYLQLNSVTTEDTATYYCARDFDVWGAGTTVTVSS
VL: DIVMTQSQKFMSTSVGDRVSVTCKASQNVGTNVAWYQQKPGQSPKALIYSASYRYSGVPDRFTGSGSGTDFTLTISNVQSEDLAEYFCHQYYSYPLTFGSGTKLEIK
- Kd: 3.2 nM
- koff: 0.000412 s⁻¹
- kon: 129000 M⁻¹ s⁻¹

B18: clone 2.1 Fab TA_26 (Fab, V domains shown)
VH: EVQLQESGPSLVKPSQTLSLTCSVTGDSITSGYWNWIRKFPGNKLEYMGYISYSGSTYYNPSLKSRISITRDTSKNQYYLQLNSVTTEDTATYYCARDFDVWGAGTTVTVSS
VL: DIVMTQSQKFMSTSVGDRVSVTCKASQNVGTNVAWYQQKPGQSPKALIYSASYRYSGVPDRFTGSGSGTDFTLTISNVQSEDLAEYFCQQYDSYPLTFGSGTKLEIK
- Kd: 58.5 nM
- koff: 0.00803 s⁻¹
- kon: 137000 M⁻¹ s⁻¹

B19: clone 2.1 Fab TA_27 (Fab, V domains shown)
VH: EVQLQESGPSLVKPSQTLSLTCSVTGDSITSGYWNWIRKFPGNRLEYMGYISYSGSTYYNPSLKSRISITRDTSKNQYYLQLNSVTTEDTATYYCARDFDVWGAGTTVTVSS
VL: DIVMTQSQKFMSTSVGDRVSVTCKASQNVGTNVGWFQQKPGQSPKSLIYSASYRYSGVPDRFTGSGSGTDFTLTISNVQSEDLAEYFCQQYSSYPLTFGSGTKLEIK
- Kd: 0.28 nM
- koff: 0.000203 s⁻¹
- kon: 724000 M⁻¹ s⁻¹

B20: clone 2.1 Fab TA_28 (Fab, V domains shown)
VH: EVQLQESGPSLVKPSQTLSLTCSVTGDSITSGYWNWIRKFPGNKLEYMGYISYSGGTYYNPSLKSRISITRDTSKNQYYLQLNSVTTEDTATYYCARDFDVWGAGTTVTVSS
VL: DIVMTQSQKFMSTSVGDRVSVTCKASQNVGTNVAWYQQKPGQSPKALIYSASYRYSGVPDRFTGSGSGTDFTLTISNVQSEDLAEYFCQQYNSYPLTFGSGTKLEIK
- Kd: 22 nM
- koff: 0.00309 s⁻¹
- kon: 140000 M⁻¹ s⁻¹
